Measurements from US20180071366A1.
Numbered stars: 1 amine (or outer) side, 2 acyl side, 3 side chain; on linkers, the order of the positions; unused ones are H or OH. Bridge positions count the residues as written; N and C are the ends. Square brackets hold non-standard residues; d marks the D form. * marks the point of attachment. C20 diacid = O=C(O)CCCCCCCCCCCCCCCCCCC(=O)*; γGlu = O=C(O)[C@H](CCC(=O)[*:2])N[*:1]; Hyp = O=C(O)[C@@H]1C[C@@H](O)CN1; NMeI = CC[C@H](C)[C@H](NC)C(=O)O; Aad = N[C@@H](CCCC(=O)O)C(=O)O; hLys = NCCCCC[C@H](N)C(=O)O; Orn = NCCC[C@H](N)C(=O)O; Dab = NCC[C@H](N)C(=O)O; Sar = CNCC(=O)O

Key:
[1] = biological target: recombinant human amylin 3 receptor (hAMYR3) (human), P30988; experiment: cell-based or functional assay
recombinant human amylin 3 receptor (hAMYR3) (human), P30988, sequence (P30988 25-474, chain 1 of 2): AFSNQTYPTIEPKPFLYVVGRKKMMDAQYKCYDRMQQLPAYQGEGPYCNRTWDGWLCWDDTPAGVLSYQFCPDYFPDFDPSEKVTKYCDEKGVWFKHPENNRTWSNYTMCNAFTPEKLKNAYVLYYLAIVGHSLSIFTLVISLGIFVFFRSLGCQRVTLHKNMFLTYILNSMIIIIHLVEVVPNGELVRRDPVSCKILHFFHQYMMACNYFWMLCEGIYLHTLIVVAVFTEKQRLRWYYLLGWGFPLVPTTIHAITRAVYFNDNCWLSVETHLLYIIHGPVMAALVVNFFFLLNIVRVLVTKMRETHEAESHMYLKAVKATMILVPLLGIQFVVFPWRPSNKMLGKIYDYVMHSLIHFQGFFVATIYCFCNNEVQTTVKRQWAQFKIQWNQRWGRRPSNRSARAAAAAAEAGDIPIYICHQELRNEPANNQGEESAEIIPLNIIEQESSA
recombinant human amylin 3 receptor (hAMYR3) (human), P30988, sequence (O60896 24-148, chain 2 of 2, further chain): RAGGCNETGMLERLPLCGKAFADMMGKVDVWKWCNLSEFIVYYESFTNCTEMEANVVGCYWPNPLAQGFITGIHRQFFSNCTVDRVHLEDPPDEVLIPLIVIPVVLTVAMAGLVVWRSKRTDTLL

[2] = biological target: recombinant human calcitonin receptor (hCT-R) (human), P30988; experiment: cell-based or functional assay
recombinant human calcitonin receptor (hCT-R) (human), P30988, sequence (P30988 25-474): as the sequence (P30988 25-474, chain 1 of 2) above

Row | Binder | hAMYR3 EC50 [nM] (cAMP formation, 1321N1 cells expressing hAMYR3) [1] | hCT-R EC50 [nM] (cAMP formation, 1321N1 cells expressing hCT-R) [2]
1 | {C20 diacid-γGlu}-RDGTAT[Dab]ATERLAHFLQRSSF[Sar]A[NMeI]LSSTEVGSNT[Hyp]-NH2 (lactam 2-7; SMILES CC[C@H](C)[C@@H](C(=O)N[C@@H](CC(C)C)C(=O)N[C@@H](CO)C(=O)N[C@@H](CO)C(=O)N[C@H](C(=O)N[C@@H](CCC(=O)O)C(=O)N[C@H](C(=O)NCC(=O)N[C@@H](CO)C(=O)N[C@@H](CC(N)=O)C(=O)N[C@H](C(=O)N1C[C@H](O)C[C@H]1C(N)=O)[C@@H](C)O)C(C)C)[C@@H](C)O)N(C)C(=O)[C@H](C)NC(=O)CN(C)C(=O)[C@H](Cc1ccccc1)NC(=O)[C@H](CO)NC(=O)[C@H](CO)NC(=O)[C@H](CCCNC(=N)N)NC(=O)[C@H](CCC(N)=O)NC(=O)[C@H](CC(C)C)NC(=O)[C@H](Cc1ccccc1)NC(=O)[C@H](Cc1c[nH]cn1)NC(=O)[C@H](C)NC(=O)[C@H](CC(C)C)NC(=O)[C@H](CCCNC(=N)N)NC(=O)[C@H](CCC(=O)O)NC(=O)[C@@H](NC(=O)[C@H](C)NC(=O)[C@@H]1CCNC(=O)C[C@H](NC(=O)[C@H](CCCNC(=N)N)NC(=O)CC[C@H](NC(=O)CCCCCCCCCCCCCCCCCCC(=O)O)C(=O)O)C(=O)NCC(=O)N[C@@H]([C@@H](C)O)C(=O)N[C@@H](C)C(=O)N[C@@H]([C@@H](C)O)C(=O)N1)[C@@H](C)O) [Compound 2] | 0.032 | 0.105
2 | {C20 diacid-γGlu}-RDGTATKATQRLAHFLQRSSF[Sar]A[NMeI]LSSTEVGSNT[Hyp]-NH2 (lactam 2-7; SMILES CC[C@H](C)[C@@H](C(=O)N[C@@H](CC(C)C)C(=O)N[C@@H](CO)C(=O)N[C@@H](CO)C(=O)N[C@H](C(=O)N[C@@H](CCC(=O)O)C(=O)N[C@H](C(=O)NCC(=O)N[C@@H](CO)C(=O)N[C@@H](CC(N)=O)C(=O)N[C@H](C(=O)N1C[C@H](O)C[C@H]1C(N)=O)[C@@H](C)O)C(C)C)[C@@H](C)O)N(C)C(=O)[C@H](C)NC(=O)CN(C)C(=O)[C@H](Cc1ccccc1)NC(=O)[C@H](CO)NC(=O)[C@H](CO)NC(=O)[C@H](CCCNC(=N)N)NC(=O)[C@H](CCC(N)=O)NC(=O)[C@H](CC(C)C)NC(=O)[C@H](Cc1ccccc1)NC(=O)[C@H](Cc1c[nH]cn1)NC(=O)[C@H](C)NC(=O)[C@H](CC(C)C)NC(=O)[C@H](CCCNC(=N)N)NC(=O)[C@H](CCC(N)=O)NC(=O)[C@@H](NC(=O)[C@H](C)NC(=O)[C@@H]1CCCCNC(=O)C[C@H](NC(=O)[C@H](CCCNC(=N)N)NC(=O)CC[C@H](NC(=O)CCCCCCCCCCCCCCCCCCC(=O)O)C(=O)O)C(=O)NCC(=O)N[C@@H]([C@@H](C)O)C(=O)N[C@@H](C)C(=O)N[C@@H]([C@@H](C)O)C(=O)N1)[C@@H](C)O) [Compound 16] | 0.035 | 0.043
3 | {C20 diacid-γGlu}-RDGTATKATQRLAHFLQRSSF[Sar]A[NMeI]PSSTEVGSNT[Hyp]-NH2 (lactam 2-7; SMILES CC[C@H](C)[C@@H](C(=O)N1CCC[C@H]1C(=O)N[C@@H](CO)C(=O)N[C@@H](CO)C(=O)N[C@H](C(=O)N[C@@H](CCC(=O)O)C(=O)N[C@H](C(=O)NCC(=O)N[C@@H](CO)C(=O)N[C@@H](CC(N)=O)C(=O)N[C@H](C(=O)N1C[C@H](O)C[C@H]1C(N)=O)[C@@H](C)O)C(C)C)[C@@H](C)O)N(C)C(=O)[C@H](C)NC(=O)CN(C)C(=O)[C@H](Cc1ccccc1)NC(=O)[C@H](CO)NC(=O)[C@H](CO)NC(=O)[C@H](CCCNC(=N)N)NC(=O)[C@H](CCC(N)=O)NC(=O)[C@H](CC(C)C)NC(=O)[C@H](Cc1ccccc1)NC(=O)[C@H](Cc1c[nH]cn1)NC(=O)[C@H](C)NC(=O)[C@H](CC(C)C)NC(=O)[C@H](CCCNC(=N)N)NC(=O)[C@H](CCC(N)=O)NC(=O)[C@@H](NC(=O)[C@H](C)NC(=O)[C@@H]1CCCCNC(=O)C[C@H](NC(=O)[C@H](CCCNC(=N)N)NC(=O)CC[C@H](NC(=O)CCCCCCCCCCCCCCCCCCC(=O)O)C(=O)O)C(=O)NCC(=O)N[C@@H]([C@@H](C)O)C(=O)N[C@@H](C)C(=O)N[C@@H]([C@@H](C)O)C(=O)N1)[C@@H](C)O) [Compound 15] | 0.017 | 0.056

Second part, the binder after the results:

Row | hAMYR3 EC50 [nM] (cAMP formation, 1321N1 cells expressing hAMYR3) [1] | hCT-R EC50 [nM] (cAMP formation, 1321N1 cells expressing hCT-R) [2] | Binder
4 | 0.006 | 0.028 | {C20 diacid-γGlu}-RDGTAT[hLys]ATERLAHFLQRSSF[Sar]A[NMeI]LSSTEVGSNT[Hyp]-NH2 (lactam 2-7; SMILES CC[C@H](C)[C@@H](C(=O)N[C@@H](CC(C)C)C(=O)N[C@@H](CO)C(=O)N[C@@H](CO)C(=O)N[C@H](C(=O)N[C@@H](CCC(=O)O)C(=O)N[C@H](C(=O)NCC(=O)N[C@@H](CO)C(=O)N[C@@H](CC(N)=O)C(=O)N[C@H](C(=O)N1C[C@H](O)C[C@H]1C(N)=O)[C@@H](C)O)C(C)C)[C@@H](C)O)N(C)C(=O)[C@H](C)NC(=O)CN(C)C(=O)[C@H](Cc1ccccc1)NC(=O)[C@H](CO)NC(=O)[C@H](CO)NC(=O)[C@H](CCCNC(=N)N)NC(=O)[C@H](CCC(N)=O)NC(=O)[C@H](CC(C)C)NC(=O)[C@H](Cc1ccccc1)NC(=O)[C@H](Cc1c[nH]cn1)NC(=O)[C@H](C)NC(=O)[C@H](CC(C)C)NC(=O)[C@H](CCCNC(=N)N)NC(=O)[C@H](CCC(=O)O)NC(=O)[C@@H](NC(=O)[C@H](C)NC(=O)[C@@H]1CCCCCNC(=O)C[C@H](NC(=O)[C@H](CCCNC(=N)N)NC(=O)CC[C@H](NC(=O)CCCCCCCCCCCCCCCCCCC(=O)O)C(=O)O)C(=O)NCC(=O)N[C@@H]([C@@H](C)O)C(=O)N[C@@H](C)C(=O)N[C@@H]([C@@H](C)O)C(=O)N1)[C@@H](C)O) [Compound 19]
5 | 0.003 | 0.009 | {C20 diacid-γGlu}-RDGTAT[Orn]ATERLA[Aad]FLQRSSF[Sar]A[NMeI]LSSTEVGSNT[Hyp]-NH2 (lactam 2-7; SMILES CC[C@H](C)[C@@H](C(=O)N[C@@H](CC(C)C)C(=O)N[C@@H](CO)C(=O)N[C@@H](CO)C(=O)N[C@H](C(=O)N[C@@H](CCC(=O)O)C(=O)N[C@H](C(=O)NCC(=O)N[C@@H](CO)C(=O)N[C@@H](CC(N)=O)C(=O)N[C@H](C(=O)N1C[C@H](O)C[C@H]1C(N)=O)[C@@H](C)O)C(C)C)[C@@H](C)O)N(C)C(=O)[C@H](C)NC(=O)CN(C)C(=O)[C@H](Cc1ccccc1)NC(=O)[C@H](CO)NC(=O)[C@H](CO)NC(=O)[C@H](CCCNC(=N)N)NC(=O)[C@H](CCC(N)=O)NC(=O)[C@H](CC(C)C)NC(=O)[C@H](Cc1ccccc1)NC(=O)[C@H](CCCC(=O)O)NC(=O)[C@H](C)NC(=O)[C@H](CC(C)C)NC(=O)[C@H](CCCNC(=N)N)NC(=O)[C@H](CCC(=O)O)NC(=O)[C@@H](NC(=O)[C@H](C)NC(=O)[C@@H]1CCCNC(=O)C[C@H](NC(=O)[C@H](CCCNC(=N)N)NC(=O)CC[C@H](NC(=O)CCCCCCCCCCCCCCCCCCC(=O)O)C(=O)O)C(=O)NCC(=O)N[C@@H]([C@@H](C)O)C(=O)N[C@@H](C)C(=O)N[C@@H]([C@@H](C)O)C(=O)N1)[C@@H](C)O) [Compound 20]
6 | 0.025 | 0.058 | {C20 diacid-γGlu}-RDGTATKATERLAHFLQRSSF[Sar]A[NMeI]PSSTEVGSNT[Hyp]-NH2 (lactam 2-7; SMILES CC[C@H](C)[C@@H](C(=O)N1CCC[C@H]1C(=O)N[C@@H](CO)C(=O)N[C@@H](CO)C(=O)N[C@H](C(=O)N[C@@H](CCC(=O)O)C(=O)N[C@H](C(=O)NCC(=O)N[C@@H](CO)C(=O)N[C@@H](CC(N)=O)C(=O)N[C@H](C(=O)N1C[C@H](O)C[C@H]1C(N)=O)[C@@H](C)O)C(C)C)[C@@H](C)O)N(C)C(=O)[C@H](C)NC(=O)CN(C)C(=O)[C@H](Cc1ccccc1)NC(=O)[C@H](CO)NC(=O)[C@H](CO)NC(=O)[C@H](CCCNC(=N)N)NC(=O)[C@H](CCC(N)=O)NC(=O)[C@H](CC(C)C)NC(=O)[C@H](Cc1ccccc1)NC(=O)[C@H](Cc1c[nH]cn1)NC(=O)[C@H](C)NC(=O)[C@H](CC(C)C)NC(=O)[C@H](CCCNC(=N)N)NC(=O)[C@H](CCC(=O)O)NC(=O)[C@@H](NC(=O)[C@H](C)NC(=O)[C@@H]1CCCCNC(=O)C[C@H](NC(=O)[C@H](CCCNC(=N)N)NC(=O)CC[C@H](NC(=O)CCCCCCCCCCCCCCCCCCC(=O)O)C(=O)O)C(=O)NCC(=O)N[C@@H]([C@@H](C)O)C(=O)N[C@@H](C)C(=O)N[C@@H]([C@@H](C)O)C(=O)N1)[C@@H](C)O) [Compound 17]
7 | 0.031 | 0.085 | {C20 diacid-γGlu}-RDGTATKATERLAHFLQRSSF[Sar]A[NMeI]LSSTEVGSNT[Hyp]-NH2 (lactam 2-7; SMILES CC[C@H](C)[C@@H](C(=O)N[C@@H](CC(C)C)C(=O)N[C@@H](CO)C(=O)N[C@@H](CO)C(=O)N[C@H](C(=O)N[C@@H](CCC(=O)O)C(=O)N[C@H](C(=O)NCC(=O)N[C@@H](CO)C(=O)N[C@@H](CC(N)=O)C(=O)N[C@H](C(=O)N1C[C@H](O)C[C@H]1C(N)=O)[C@@H](C)O)C(C)C)[C@@H](C)O)N(C)C(=O)[C@H](C)NC(=O)CN(C)C(=O)[C@H](Cc1ccccc1)NC(=O)[C@H](CO)NC(=O)[C@H](CO)NC(=O)[C@H](CCCNC(=N)N)NC(=O)[C@H](CCC(N)=O)NC(=O)[C@H](CC(C)C)NC(=O)[C@H](Cc1ccccc1)NC(=O)[C@H](Cc1c[nH]cn1)NC(=O)[C@H](C)NC(=O)[C@H](CC(C)C)NC(=O)[C@H](CCCNC(=N)N)NC(=O)[C@H](CCC(=O)O)NC(=O)[C@@H](NC(=O)[C@H](C)NC(=O)[C@@H]1CCCCNC(=O)C[C@H](NC(=O)[C@H](CCCNC(=N)N)NC(=O)CC[C@H](NC(=O)CCCCCCCCCCCCCCCCCCC(=O)O)C(=O)O)C(=O)NCC(=O)N[C@@H]([C@@H](C)O)C(=O)N[C@@H](C)C(=O)N[C@@H]([C@@H](C)O)C(=O)N1)[C@@H](C)O) [Compound 18]
